{"source": "paper PMC10939272", "about": "“Structural insights into the octamerization of glycerol dehydrogenase” (PLOS ONE, 2024)", "proteins": {"B1": {"name": "Escherichia coli glycerol dehydrogenase (GDH), full-length (1-367) (enzyme, E. coli K12 MG1655, UniProt P0A9S5 1-367, looked up)", "chain": "MDRIIQSPGKYIQGADVINRLGEYLKPLAERWLVVGDKFVLGFAQSTVEKSFKDAGLVVEIAPFGGECSQNEIDRLRGIAETAQCGAILGIGGGKTLDTAKALAHFMGVPVAIAPTIASTDAPCSALSVIYTDEGEFDRYLLLPNNPNMVIVDTKIVAGAPARLLAAGIGDALATWFEARACSRSGATTMAGGKCTQAALALAELCYNTLLEEGEKAMLAAEQHVVTPALERVIEANTYLSGVGFESGGLAAAHAVHNGLTAIPDAHHYYHGEKVAFGTLTQLVLENAPVEEIETVAALSHAVGLPITLAQLDIKEDVPAKMRIVAEAACAEGETIHNMPGGATPDQVYAALLVADQYGQRFLQEWE", "notes": "glycerol dehydrogenase (GDH; EC 1.1.1.6) of E. coli K12 MG1655, full length, residues 1-367; Homo-octamer; Two protomers (Mol-A, Mol-B) lie in the asymmetric unit and the octamer is formed by crystallographic 4-fold symmetry; Crystallised with Zn2+ and NAD+ and soaked in glycerol; also called E. coli GDH; GDH^NAD∙Gly; source: E. coli BL21 (DE3), purified (Ni-IDA, size-exclusion chromatography)"}}, "target": "the molecule itself", "experiment": "crystal structure; hanging-drop vapor diffusion, 20°C, pH 4.2, with ZnCl2 and NAD+, soaked in glycerol; space group I422, 2.0 Å; octamer by non-crystallographic 2-fold and crystallographic 4-fold symmetry"}
{"protein": "B1", "values": [{"measurement": "stoichiometry N", "value": 8}]}
